Measurements published in patent US10253078 (ZEALAND PHARMA A S, dated 2019).
Like-named read-outs stand apart in the source and are kept apart here. Starred links: 1 amine or outer side, 2 acyl side, 3 side chain; linkers in the order of their positions; H or OH if unused. Non-standard residues stand in square brackets, D forms with d. Groups on a side chain read outwards from the residue. *: point of attachment. C20 diacid = O=C(O)CCCCCCCCCCCCCCCCCCC(=O)*; γGlu = O=C(O)[C@H](CCC(=O)[*:2])N[*:1]; Aib = CC(C)(N)C(=O)O

Legend:
Test in all cases: cell-based or functional assay
[1] = target: human GLP-1 receptor (human) (UniProt P43220)
[2] = target: T1, human GIP receptor (human, UniProt P48546 22-466)
T1 sequence (looked up): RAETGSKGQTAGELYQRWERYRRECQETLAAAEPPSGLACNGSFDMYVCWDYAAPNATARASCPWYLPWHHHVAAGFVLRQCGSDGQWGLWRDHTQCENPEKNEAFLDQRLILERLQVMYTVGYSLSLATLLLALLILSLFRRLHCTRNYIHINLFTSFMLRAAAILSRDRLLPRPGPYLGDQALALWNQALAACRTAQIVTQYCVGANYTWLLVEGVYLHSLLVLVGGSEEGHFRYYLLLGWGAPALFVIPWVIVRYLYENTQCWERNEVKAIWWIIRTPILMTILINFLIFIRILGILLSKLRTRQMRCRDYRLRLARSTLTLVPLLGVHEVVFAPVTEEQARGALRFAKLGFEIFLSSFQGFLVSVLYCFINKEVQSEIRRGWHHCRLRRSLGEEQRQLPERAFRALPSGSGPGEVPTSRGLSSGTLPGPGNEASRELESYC

[3] = target: human GLP-1 receptor (human, UniProt P43220 24-463)
[4] = target: T1, human GIP receptor; remark: listed apart in the source
[5] = target: T1, human GIP receptor; remark: listed apart in the source

Sequence of human GLP-1 receptor (human) (P43220 24-463): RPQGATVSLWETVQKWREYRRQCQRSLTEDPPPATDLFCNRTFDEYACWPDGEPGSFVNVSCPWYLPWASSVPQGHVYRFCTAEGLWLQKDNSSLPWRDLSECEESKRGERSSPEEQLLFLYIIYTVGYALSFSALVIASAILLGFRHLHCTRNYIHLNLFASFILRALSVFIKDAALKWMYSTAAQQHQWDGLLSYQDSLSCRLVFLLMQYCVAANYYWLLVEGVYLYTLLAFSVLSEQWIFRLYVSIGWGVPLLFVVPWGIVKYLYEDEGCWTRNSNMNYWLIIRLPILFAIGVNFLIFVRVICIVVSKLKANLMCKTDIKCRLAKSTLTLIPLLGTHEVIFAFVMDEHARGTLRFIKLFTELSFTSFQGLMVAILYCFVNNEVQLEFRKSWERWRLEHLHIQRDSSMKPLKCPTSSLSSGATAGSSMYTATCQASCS

With “Exendin-4 (from UniProt P26349 48-86) (peptide)” the EC50 hGLP1 R (cAMP, HEK293 cells expressing the GLP-1R) [1] was 0.004 nM.

With “human GIP (from UniProt P09681 52-93) (ligand)” the EC50, hGIP-R level of cAMP (HEK293 cells expressing human GIP R) [2] was 0.003 nM and the EC50 hGLP1 R (cAMP, HEK293 cells expressing the GLP-1R) [3] was greater than 100 nM.

B1: Compound 13 (peptide)
peptide: H-Y[Aib]EGTFISDYSIELEKIAQRAFVEWLLAQGPSSGAPPPSK([Peg3-Peg3-γGlu-C20 diacid])-NH2
In the case of B1, the “EC50, hGIP-R level of cAMP (HEK293 cells expressing human GIP R)” value (shortened to “EC50, hGIP-R level of cAMP”) [4] is reported as 0.014 nM, the “EC50 hGIP R (cAMP, HEK293 cells expressing the GIP R)” value (“EC50 hGIP R” for short) [5] is reported as 0.008 nM and the “EC50 hGLP1 R (cAMP, HEK293 cells expressing the GLP-1R)” value (from here on “EC50 hGLP1 R”) [3] is reported as greater than 10 nM.

B2: Compound 40 (peptide)
peptide: H-Y[Aib]EGTFISDYSIELDKK([Peg3-Peg3-γGlu-C20 diacid])AAQAFIEWLLAQGPSSGAPPPS-NH2
With B2 the “EC50, hGIP-R level of cAMP” value [4] was 0.01 nM, the “EC50 hGIP R” value [5] was 0.007 nM and the “EC50 hGLP1 R” value [3] was greater than 10 nM.

B3: Compound 16 (peptide)
peptide: H-Y[Aib]EGTFISDYSIELDKIAAQDFVNWLLAGPSSGAPPPSK([Peg3-Peg3-γGlu-C20 diacid])-NH2
With B3 the “EC50, hGIP-R level of cAMP” value [4] was 0.016 nM, the “EC50 hGIP R” value [5] was 0.012 nM and the “EC50 hGLP1 R” value [3] was greater than 10 nM.

B4: Compound 15 (peptide)
peptide: H-Y[Aib]EGTFISDYSIELDKK([Peg3-Peg3-γGlu-C20 diacid])AAQDFVNWLLAGPSSGAPPPS-NH2
B4 was tested, and the “EC50, hGIP-R level of cAMP” value [4] was 0.012 nM, the “EC50 hGIP R” value [5] was 0.024 nM and the “EC50 hGLP1 R” value [3] was greater than 100 nM.

B5: Compound 12 (peptide)
peptide: H-Y[Aib]EGTFISDYSIELEKK([Peg3-Peg3-γGlu-C20 diacid])AQRAFVEWLLAQGPSSGAPPPS-NH2
In the case of B5, the “EC50, hGIP-R level of cAMP” value [4] is reported as 0.009 nM, the “EC50 hGIP R” value [5] is reported as 0.009 nM and the “EC50 hGLP1 R” value [3] is reported as greater than 3 nM.

B6: Compound 38 (peptide)
peptide: H-Y[Aib]EGTFISDYSIELDKK([Peg3-Peg3-γGlu-C20 diacid])AAQDFIEWLLAQGPSSGAPPPS-NH2
B6 was tested, and the “EC50, hGIP-R level of cAMP” value [4] was 0.001 nM, the “EC50 hGIP R” value [5] was 0.017 nM and the “EC50 hGLP1 R” value [3] was greater than 100 nM.

B7: Compound 11 (peptide)
peptide: H-Y[Aib]EGTFISDYSIELEKK([Peg3-Peg3-γGlu-C20 diacid])AAKEFVNWLLAQGPSSGAPPPS-NH2
In the case of B7, the “EC50, hGIP-R level of cAMP” value [4] is reported as 0.009 nM, the “EC50 hGIP R” value [5] is reported as 0.008 nM and the “EC50 hGLP1 R” value [3] is reported as greater than 3 nM.

B8: Compound 35 (peptide)
peptide: H-Y[Aib]EGTFISDYSK([Peg3-Peg3-γGlu-C20 diacid])ELDKIAQRAFIEWLLAQGPSSGAPPPS-NH2
In the case of B8, the “EC50, hGIP-R level of cAMP” value [4] is reported as 0.008 nM, the “EC50 hGIP R” value [5] is reported as 0.011 nM and the “EC50 hGLP1 R” value [3] is reported as greater than 3 nM.

B9: Compound 39 (peptide)
peptide: H-Y[Aib]EGTFISDYSIELDKK([Peg3-Peg3-γGlu-C20 diacid])AAQDFINWLLAQGPSSGAPPPS-NH2
With B9 the “EC50, hGIP-R level of cAMP” value [4] was 0.007 nM, the “EC50 hGIP R” value [5] was 0.001 nM and the “EC50 hGLP1 R” value [3] was greater than 100 nM.

B10: Compound 18 (peptide)
peptide: H-Y[Aib]EGTFISDYSIELDKK([Peg3-Peg3-γGlu-C20 diacid])AQRAFIEWLLAQGPSSGAPPPS-NH2
B10 was tested, and the “EC50, hGIP-R level of cAMP” value [4] was 0.006 nM, the “EC50 hGIP R” value [5] was 0.007 nM and the “EC50 hGLP1 R” value [3] was greater than 3 nM.

B11: Compound 37 (peptide)
peptide: YXEGTFISDYSIELDKIAAQDFIEWLLAGPSSGAPPPSK
modifications: D-Ala at 2; Lys 39 side chain acylated: K((19-Carboxy-nonadecanoyl)-[(Piperazine-1-yl)-acetyl]-Peg3-Peg3); C-terminal amide (-NH2)
B11 was tested, and the “EC50, hGIP-R level of cAMP” value [4] was 0.016 nM, the “EC50 hGIP R” value [5] was 0.006 nM and the “EC50 hGLP1 R” value [3] was greater than 10 nM.

B12: Compound 17 (peptide)
peptide: H-Y[Aib]EGTFISDYSIELDKK([Peg3-Peg3-γGlu-C20 diacid])AQRAFVEWLLAQGPSSGAPPPS-NH2
For B12, the “EC50, hGIP-R level of cAMP” value [4] was 0.007 nM, the “EC50 hGIP R” value [5] was 0.016 nM and the “EC50 hGLP1 R” value [3] was greater than 3 nM.

B13: Compound 41 (peptide)
peptide: YAEGTFISDYSIELDKKAAQAFIEWLLAQGPSSGAPPPS
modifications: Aib at 2; Lys 17 side chain acylated: K((19-Carboxy-nonadecanoyl)-[(Piperazine-1-yl)-acetyl]-Peg3-Peg3); C-terminal amide (-NH2)
For B13, the “EC50, hGIP-R level of cAMP” value [4] was 0.014 nM, the “EC50 hGIP R” value [5] was 0.01 nM and the “EC50 hGLP1 R” value [3] was greater than 10 nM.

B14: Compound 14 (peptide)
peptide: H-Y[Aib]EGTFISDYSIELEKIAQRAFVEWLLAQK([Peg3-Peg3-γGlu-C20 diacid])-NH2
For B14, the “EC50, hGIP-R level of cAMP” value [4] was 0.024 nM, the “EC50 hGIP R” value [5] was 0.014 nM and the “EC50 hGLP1 R” value [3] was greater than 10 nM.

B15: Compound 36 (peptide)
peptide: H-Y[dA]EGTFISDYSIELDKK([Peg3-Peg3-γGlu-C20 diacid])AQRAFIEWLLAQGPSSGAPPPS-NH2
In the case of B15, the “EC50, hGIP-R level of cAMP” value [4] is reported as 0.006 nM, the “EC50 hGIP R” value [5] is reported as 0.006 nM and the “EC50 hGLP1 R” value [3] is reported as greater than 10 nM.

B16: Compound 8 (peptide)
peptide: H-Y[Aib]EGTFISDYSIELDKK([Peg3-Peg3-γGlu-C20 diacid])HQQDFVNYLLAQGPSSGAPPPS-NH2
For B16, the “EC50, hGIP-R level of cAMP” value [4] was 0.009 nM, the “EC50 hGIP R” value [5] was 0.019 nM and the “EC50 hGLP1 R” value [3] was greater than 10 nM.
